Patent US20230151068A1

Target: biotinylated His-Avi-TEAD (194-411) (UniProt P28347)
Test: SSM screen, enrichment after two rounds of sorting

GSPDEYKERAKECCKKGDIQCCLRYFEESGDPNVMLICLFCP (designed binder) [I05K variant of SEQ ID NO: 1]
enrichment score: -1.5

GSPDEYNERAKECCKKGDIQCCLRYFEESGDPNVMLICLFCP (designed binder) [I05N variant of SEQ ID NO: 1]
enrichment score: -1.34

GSPDEYIENAKECCKKGDIQCCLRYFEESGDPNVMLICLFCP (designed binder) [R07N variant of SEQ ID NO: 1]
enrichment score: 0.34

GSPQEYIERAKECCKKGDIQCCLRYFEESGDPNVMLICLFCP (designed binder) [D02Q variant of SEQ ID NO: 1]
enrichment score: -0.2

GSPDNYIERAKECCKKGDIQCCLRYFEESGDPNVMLICLFCP (designed binder) [E03N variant of SEQ ID NO: 1]
enrichment score: 0.58

GSPDENIERAKECCKKGDIQCCLRYFEESGDPNVMLICLFCP (designed binder) [Y04N variant of SEQ ID NO: 1]
enrichment score: 0.04

GSPDSYIERAKECCKKGDIQCCLRYFEESGDPNVMLICLFCP (designed binder) [E03S variant of SEQ ID NO: 1]
enrichment score: -0.41

GSPDEYQERAKECCKKGDIQCCLRYFEESGDPNVMLICLFCP (designed binder) [I05Q variant of SEQ ID NO: 1]
enrichment score: -1.23

GSQDEYIERAKECCKKGDIQCCLRYFEESGDPNVMLICLFCP (designed binder) [P01Q variant of SEQ ID NO: 1]
enrichment score: -0.84

GSPDEYIERAKKCCKKGDIQCCLRYFEESGDPNVMLICLFCP (designed binder) [E10K variant of SEQ ID NO: 1]
enrichment score: -2.3

GSPTEYIERAKECCKKGDIQCCLRYFEESGDPNVMLICLFCP (designed binder) [D02T variant of SEQ ID NO: 1]
enrichment score: -0.52

GSPDEYMERAKECCKKGDIQCCLRYFEESGDPNVMLICLFCP (designed binder) [I05M variant of SEQ ID NO: 1]
enrichment score: -1.87

GSPDEYIESAKECCKKGDIQCCLRYFEESGDPNVMLICLFCP (designed binder) [R07S variant of SEQ ID NO: 1]
enrichment score: 0.31

GSPDEYIERNKECCKKGDIQCCLRYFEESGDPNVMLICLFCP (designed binder) [A08N variant of SEQ ID NO: 1]
enrichment score: -9.2

GSPDEYIERAMECCKKGDIQCCLRYFEESGDPNVMLICLFCP (designed binder) [K09M variant of SEQ ID NO: 1]
enrichment score: -3.56

GSPDEYIERANECCKKGDIQCCLRYFEESGDPNVMLICLFCP (designed binder) [K09N variant of SEQ ID NO: 1]
enrichment score: 3.31

GSPDEYIERAKSCCKKGDIQCCLRYFEESGDPNVMLICLFCP (designed binder) [E10S variant of SEQ ID NO: 1]
enrichment score: -2.47

GSPSEYIERAKECCKKGDIQCCLRYFEESGDPNVMLICLFCP (designed binder) [D02S variant of SEQ ID NO: 1]
enrichment score: -1.01

GSPDEYIMRAKECCKKGDIQCCLRYFEESGDPNVMLICLFCP (designed binder) [E06M variant of SEQ ID NO: 1]
enrichment score: -2.04

GSPDEYISRAKECCKKGDIQCCLRYFEESGDPNVMLICLFCP (designed binder) [E06S variant of SEQ ID NO: 1]
enrichment score: -1.09

GSPDEQIERAKECCKKGDIQCCLRYFEESGDPNVMLICLFCP (designed binder) [Y04Q variant of SEQ ID NO: 1]
enrichment score: 0.29

GSPDESIERAKECCKKGDIQCCLRYFEESGDPNVMLICLFCP (designed binder) [Y04S variant of SEQ ID NO: 1]
enrichment score: -0.74

GSPDMYIERAKECCKKGDIQCCLRYFEESGDPNVMLICLFCP (designed binder) [E03M variant of SEQ ID NO: 1]
enrichment score: 2.57

GSPDEMIERAKECCKKGDIQCCLRYFEESGDPNVMLICLFCP (designed binder) [Y04M variant of SEQ ID NO: 1]
enrichment score: -0.68

GSPREYIERAKECCKKGDIQCCLRYFEESGDPNVMLICLFCP (designed binder) [D02R variant of SEQ ID NO: 1]
enrichment score: -7.12

GSMDEYIERAKECCKKGDIQCCLRYFEESGDPNVMLICLFCP (designed binder) [P01M variant of SEQ ID NO: 1]
enrichment score: -1.02

GSPDEYIERASECCKKGDIQCCLRYFEESGDPNVMLICLFCP (designed binder) [K09S variant of SEQ ID NO: 1]
enrichment score: -0.91

GSPDEYIEQAKECCKKGDIQCCLRYFEESGDPNVMLICLFCP (designed binder) [R07Q variant of SEQ ID NO: 1]
enrichment score: -0.48

GSPDEYIERMKECCKKGDIQCCLRYFEESGDPNVMLICLFCP (designed binder) [A08M variant of SEQ ID NO: 1]
enrichment score: -10.1

GSPDEYINRAKECCKKGDIQCCLRYFEESGDPNVMLICLFCP (designed binder) [E06N variant of SEQ ID NO: 1]
enrichment score: -0.82

GSPDEYIRRAKECCKKGDIQCCLRYFEESGDPNVMLICLFCP (designed binder) [E06R variant of SEQ ID NO: 1]
enrichment score: -1.78

GSPDEYIERAKQCCKKGDIQCCLRYFEESGDPNVMLICLFCP (designed binder) [E10Q variant of SEQ ID NO: 1]
enrichment score: -1.94

GSPDEYIEKAKECCKKGDIQCCLRYFEESGDPNVMLICLFCP (designed binder) [R07K variant of SEQ ID NO: 1]
enrichment score: 0.47

GSRDEYIERAKECCKKGDIQCCLRYFEESGDPNVMLICLFCP (designed binder) [P01R variant of SEQ ID NO: 1]
enrichment score: -2.1

GSSDEYIERAKECCKKGDIQCCLRYFEESGDPNVMLICLFCP (designed binder) [P01S variant of SEQ ID NO: 1]
enrichment score: 0.13

GSPDEYIERRKECCKKGDIQCCLRYFEESGDPNVMLICLFCP (designed binder) [A08R variant of SEQ ID NO: 1]
enrichment score: -5.84

GSPDEYIERSKECCKKGDIQCCLRYFEESGDPNVMLICLFCP (designed binder) [A08S variant of SEQ ID NO: 1]
enrichment score: -2.79

GSPDERIERAKECCKKGDIQCCLRYFEESGDPNVMLICLFCP (designed binder) [Y04R variant of SEQ ID NO: 1]
enrichment score: -0.94

GSPDEYIERKKECCKKGDIQCCLRYFEESGDPNVMLICLFCP (designed binder) [A08K variant of SEQ ID NO: 1]
enrichment score: -4.73

GSPDEYSERAKECCKKGDIQCCLRYFEESGDPNVMLICLFCP (designed binder) [I05S variant of SEQ ID NO: 1]
enrichment score: -2.04

GSPDEYIKRAKECCKKGDIQCCLRYFEESGDPNVMLICLFCP (designed binder) [E06K variant of SEQ ID NO: 1]
enrichment score: -1.13

GSPDEYIERAKRCCKKGDIQCCLRYFEESGDPNVMLICLFCP (designed binder) [E10R variant of SEQ ID NO: 1]
enrichment score: -2.84

GSPDQYIERAKECCKKGDIQCCLRYFEESGDPNVMLICLFCP (designed binder) [E03Q variant of SEQ ID NO: 1]
enrichment score: -1.35

GSPDEYIERAKMCCKKGDIQCCLRYFEESGDPNVMLICLFCP (designed binder) [E10M variant of SEQ ID NO: 1]
enrichment score: -0.34

GSNDEYIERAKECCKKGDIQCCLRYFEESGDPNVMLICLFCP (designed binder) [P01N variant of SEQ ID NO: 1]
enrichment score: -0.49

GSPDEYIQRAKECCKKGDIQCCLRYFEESGDPNVMLICLFCP (designed binder) [E06Q variant of SEQ ID NO: 1]
enrichment score: -2.41

GSPNEYIERAKECCKKGDIQCCLRYFEESGDPNVMLICLFCP (designed binder) [D02N variant of SEQ ID NO: 1]
enrichment score: -0.16

GSPDEYIEMAKECCKKGDIQCCLRYFEESGDPNVMLICLFCP (designed binder) [R07M variant of SEQ ID NO: 1]
enrichment score: -1.06

GSPDEYIERAQECCKKGDIQCCLRYFEESGDPNVMLICLFCP (designed binder) [K09Q variant of SEQ ID NO: 1]
enrichment score: 1.1

GSPDEYIERARECCKKGDIQCCLRYFEESGDPNVMLICLFCP (designed binder) [K09R variant of SEQ ID NO: 1]
enrichment score: -1.3

GSPMEYIERAKECCKKGDIQCCLRYFEESGDPNVMLICLFCP (designed binder) [D02M variant of SEQ ID NO: 1]
enrichment score: -1.86

GSPDRYIERAKECCKKGDIQCCLRYFEESGDPNVMLICLFCP (designed binder) [E03R variant of SEQ ID NO: 1]
enrichment score: -1.81

GSPDEYIERQKECCKKGDIQCCLRYFEESGDPNVMLICLFCP (designed binder) [A08Q variant of SEQ ID NO: 1]
enrichment score: -6

GSPDEYIERAKNCCKKGDIQCCLRYFEESGDPNVMLICLFCP (designed binder) [E10N variant of SEQ ID NO: 1]
enrichment score: -0.45

GSPDEYRERAKECCKKGDIQCCLRYFEESGDPNVMLICLFCP (designed binder) [I05R variant of SEQ ID NO: 1]
enrichment score: -3.27

GSTDEYIERAKECCKKGDIQCCLRYFEESGDPNVMLICLFCP (designed binder) [P01T variant of SEQ ID NO: 1]
enrichment score: -0.57
